Data taken from doi:10.1101/2022.11.15.516651 (bioRxiv, 2022).
Substitutions are numbered along the chain they refer to.

Legend:
FLAG-SLC3A2 N381D = molecular target: T1, FLAG-SLC3A2 N381D (human, UniProt P08195-1 66-630, N381D); experiment: affinity purification with mass spectrometry
T1 sequence (looked up): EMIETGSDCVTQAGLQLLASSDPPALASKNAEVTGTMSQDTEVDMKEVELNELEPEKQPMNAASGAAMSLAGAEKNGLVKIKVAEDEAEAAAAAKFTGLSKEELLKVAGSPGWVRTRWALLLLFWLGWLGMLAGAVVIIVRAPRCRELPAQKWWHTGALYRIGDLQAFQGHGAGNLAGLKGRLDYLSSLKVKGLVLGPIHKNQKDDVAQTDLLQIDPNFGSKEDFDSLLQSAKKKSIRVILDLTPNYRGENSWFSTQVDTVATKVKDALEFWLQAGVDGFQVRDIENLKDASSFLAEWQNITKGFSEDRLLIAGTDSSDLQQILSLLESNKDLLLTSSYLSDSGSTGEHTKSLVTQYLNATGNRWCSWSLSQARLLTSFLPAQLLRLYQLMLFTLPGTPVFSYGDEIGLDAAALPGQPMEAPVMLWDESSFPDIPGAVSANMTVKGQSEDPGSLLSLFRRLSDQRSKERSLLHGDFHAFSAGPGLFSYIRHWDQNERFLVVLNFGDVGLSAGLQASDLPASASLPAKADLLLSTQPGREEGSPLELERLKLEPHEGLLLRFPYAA

FLAG-SLC3A2 N365D = molecular target: T2, FLAG-SLC3A2 N365D (human, UniProt P08195-1 66-630, N365D); experiment: affinity purification with mass spectrometry
T2 sequence (looked up): T1 sequence (looked up) with N300D, D316N

B1: SLC7A5 (natural protein)
chain: not shown
**Q.** How did the “percent decrease of association against WTseq” value (FLAG-SLC3A2 N381D) turn out when B1 was run?
**A.** The value was 44 ± 14%.

**Q.** What about the “percent decrease of association against WTseq” value (FLAG-SLC3A2 N365D) of the same binder?
**A.** Its value is 44 ± 14%.

B2: SLC7A11 (xc(-)) (natural protein, human (endogenous in HeLa), UniProt Q9UPY5 1-501, looked up)
chain: MVRKPVVSTISKGGYLQGNVNGRLPSLGNKEPPGQEKVQLKRKVTLLRGVSIIIGTIIGAGIFISPKGVLQNTGSVGMSLTIWTVCGVLSLFGALSYAELGTTIKKSGGHYTYILEVFGPLPAFVRVWVELLIIRPAATAVISLAFGRYILEPFFIQCEIPELAIKLITAVGITVVMVLNSMSVSWSARIQIFLTFCKLTAILIIIVPGVMQLIKGQTQNFKDAFSGRDSSITRLPLAFYYGMYAYAGWFYLNFVTEEVENPEKTIPLAICISMAIVTIGYVLTNVAYFTTINAEELLLSNAVAVTFSERLLGNFSLAVPIFVALSCFGSMNGGVFAVSRLFYVASREGHLPEILSMIHVRKHTPLPAVIVLHPLTMIMLFSGDLDSLLNFLSFARWLFIGLAVAGLIYLRYKCPDMHRPFKVPLFIPALFSFTCLFMVALSLYSDPFSTGIGFVITLTGVPAYYLFIIWDKKPRWFRIMSEKITRTLQIILEVVPEEDKL
**Q.** What does the source list for B2?
**A.** percent decrease of association against WTseq (FLAG-SLC3A2 N381D): 67 ± 15%; percent decrease of association against WTseq (FLAG-SLC3A2 N365D): 67 ± 15%
